Data reported in PMC9272835.

Molecular target: trastuzumab
Assay: BLI; trastuzumab (5 µg/mL) captured on anti-human IgG Fc (AHC) biosensors; serial dilutions of the masks or HER2 in solution; DPBS, 0.1% BSA, 0.02% Tween 20; global fit to a 1:1 model

Kd: 192 pM | half-life of dissociation: 3.3 h | koff: 5.76e-05 s⁻¹
B1: dAb (VHH)
VHH: EVQLVESGGGLVQAGDSLTLSCAASGRTFSSVAMGWFRQAPGKERKFVANISWNGDSTYYTDSVKGRFTISRDNAKNTVYLQMSSLKPEDTAVYYCAADVRWTGDGHRADYWGQGTQVTVSS
